Fewer inactive variants are shown than the library holds.
Experiments:
biotinyl-Phe-oxazolone = assay: self-aminoacylation, catalytic enhancement (BFO) (fold over background); higher = more active; k-Seq, kA / k0A0; sequences stand for … in GGGAAUGGAUCCACAUCUACGAAUUC…UUCACUGCAGACUUGACGAAGCUG
In short: (§1)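 Each biotinyl-aminoacyl-oxazolone, at 2–1250 μM, was incubated with mutagenized RNA pools (0.43 μM) carrying a 21-nt variable region. The 50 μL reactions contained HEPES/NaCl/KCl/MgCl2/CaCl2 buffer with 5% acetonitrile at pH 6.9–7.0 and ran for 90 minutes at room temperature. After streptavidin capture, RNA was measured by qPCR in triplicate and by Illumina sequencing, and catalytic enhancement was calculated as median kA over the uncatalyzed rate from a pseudo-first-order fit of per-sequence fraction reacted.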

biotinyl-Trp-oxazolone = assay: self-aminoacylation, catalytic enhancement (BWO) (fold over background); higher = more active; k-Seq, kA / k0A0; sequences stand for … in GGGAAUGGAUCCACAUCUACGAAUUC…UUCACUGCAGACUUGACGAAGCUG
In short: as §1

| Sequence | self-aminoacylation (biotinyl-Phe-oxazolone) | self-aminoacylation (biotinyl-Trp-oxazolone) |
| --- | --- | --- |
| UUACUUCAAACAAGCGGUCUG [Fam1A.1 aminoacylation ribozyme variant] | 6.3 | – |
| AUUACCCUGGUCAUCAAGUGU [Fam2.1 aminoacylation ribozyme variant] | 2.34 | – |
| CUAGUUCAAACAUUCGGUCUG [Fam1A.1 aminoacylation ribozyme variant] | 6.01 | – |
| AUUCACCUCGGUCAUCGUGUG [Fam2.2 aminoacylation ribozyme variant] | 3.14 | – |
| AUUCUCCUAGGUCAUCGGUUG [Fam2.2 aminoacylation ribozyme variant] | 6.63 | – |
| UUACUUCAAACAUUCGGUCUG [Fam1A.1 aminoacylation ribozyme variant] | 2.03 | – |
| AAGUUUUCUAAUAGUCGUAAG [Fam3.1 aminoacylation ribozyme variant] | 2.29 | – |
| AUUCACCUGGGUCAUCGUGUG [Fam2.2 aminoacylation ribozyme variant] | 4.81 | – |
| CUACUGCAAACACUCGGUCUG [Fam1A.1 aminoacylation ribozyme variant] | 5.64 | – |
| AUGUUUGUUAAUAGUCGCAAG [Fam3.1 aminoacylation ribozyme variant] | 2.31 | – |
| AAGUUGGCUAAUAGUCCCAAG [Fam3.1 aminoacylation ribozyme variant] | 2.06 | – |
| AAAUUUGCUAAUAGUCGGAAG [Fam3.1 aminoacylation ribozyme variant] | 2.57 | – |
| AAGAUUGCUAAUUGUCGCAAG [Fam3.1 aminoacylation ribozyme variant] | – | 3.92 |
| AAGUUUGCUAACAGUCGGAAG [Fam3.1 aminoacylation ribozyme variant] | 6.87 | – |
| AAGUUAGCUAGUAGUCGCAAG [Fam3.1 aminoacylation ribozyme variant] | – | 2.01 |
| AAGUGUGCUAAUAGUCGCAAU [Fam3.1 aminoacylation ribozyme variant] | – | 2.01 |
| AUGCACCUAGGUCAUCGGGUC [Fam2.2 aminoacylation ribozyme variant] | 7.15 | – |
| AAGUUUGUUCAUAGUCGCAAG [Fam3.1 aminoacylation ribozyme variant] | 2.01 | – |
| AAGUUUGCUAAUAGUUGCGAG [Fam3.1 aminoacylation ribozyme variant] | 2.61 | – |
| AAUCACCUAGGUCAUCGUGUG [Fam2.2 aminoacylation ribozyme variant] | 5.37 | – |
| AUUAGCUUGGUCAUCGAGUGA [Fam2.1 aminoacylation ribozyme variant] | 2.2 | – |
| CUACUCCAAUCAAUCGGUCUG [Fam1A.1 aminoacylation ribozyme variant] | 2.36 | – |
| AAGAUUGCUAAUAGUCGCAAC [Fam3.1 aminoacylation ribozyme variant] | 2.08 | – |
| AAGUUUGAUAAUAGUCGCAAU [Fam3.1 aminoacylation ribozyme variant] | 2.12 | – |
| AAGUUUGCGAAUAGGCGCAAG [Fam3.1 aminoacylation ribozyme variant] | 9.76 | – |
| AUUACCCUGGCCAUCGACUGA [Fam2.1 aminoacylation ribozyme variant] | 2.83 | – |

| Sequence | self-aminoacylation (biotinyl-Phe-oxazolone) | self-aminoacylation (biotinyl-Trp-oxazolone) |
| --- | --- | --- |
| AUUCACCUAGGUCGUCGGGUU [Fam2.2 aminoacylation ribozyme variant] | 3.1 | – |
| CCACCCUUCAAGCCAUCGGUC [Fam1B.1 aminoacylation ribozyme variant] | – | 2.57 |
| AUUACCCGGGUCAUCGAGUUA [Fam2.1 aminoacylation ribozyme variant] | – | 2.23 |
| AAGUUUGCGAAUAGCCGCAAG [Fam3.1 aminoacylation ribozyme variant] | 4.03 | – |
| GUUACCCUGGUCAUCGAUUGA [Fam2.1 aminoacylation ribozyme variant] | 2.77 | – |
| AAGAUUGCUAACAGUCGCAAG [Fam3.1 aminoacylation ribozyme variant] | 2.49 | – |
| AAGUUUGCUAAUAGUCAAAAG [Fam3.1 aminoacylation ribozyme variant] | 3.26 | – |
| AAGUUUUCUAAUAGUCGAAAG [Fam3.1 aminoacylation ribozyme variant] | 2 | – |
| AAGUCUGCUAAUAGUCGCAAA [Fam3.1 aminoacylation ribozyme variant] | 2.14 | – |
| AUUCACCUAGGUUAUCGUGUG [Fam2.2 aminoacylation ribozyme variant] | 2.6 | – |
| CUAGUUCAGACAAUCGGUCUG [Fam1A.1 aminoacylation ribozyme variant] | 2.61 | – |
| AAGUUUCCUACUAGUCGCAAG [Fam3.1 aminoacylation ribozyme variant] | 2.54 | – |
| CCACACUGCAAGCCAUCGGUC [Fam1B.1 aminoacylation ribozyme variant] | – | 2.76 |
| CAGUUUGCUAAGAGUCGCAAG [Fam3.1 aminoacylation ribozyme variant] | 2.85 | – |
| CUGCUUCAAACAAUCGUUCUG [Fam1A.1 aminoacylation ribozyme variant] | 2.08 | – |
| AUUACCCUGGUCAUUGAGUAA [Fam2.1 aminoacylation ribozyme variant] | – | 2.02 |
| AGUACCCUGGUCAUCGAGUGC [Fam2.1 aminoacylation ribozyme variant] | 2.36 | – |
| GUACUACAAACAAUCGGUCUG [Fam1A.1 aminoacylation ribozyme variant] | – | 2.14 |
| AUUCACCUGGGUCAUCGGGUC [Fam2.2 aminoacylation ribozyme variant] | 5.84 | – |
| AAGUUUUCUAAUAGUUGCAAG [Fam3.1 aminoacylation ribozyme variant] | 2.94 | – |
| AAGUUUGGUAAUAGUCGCGAG [Fam3.1 aminoacylation ribozyme variant] | 2.51 | – |
| AAGAUUGCUGAUAGUCGCAAG [Fam3.1 aminoacylation ribozyme variant] | 2.57 | – |
| AAGUUUUCAAAUAGUCGCAAG [Fam3.1 aminoacylation ribozyme variant] | 2.08 | – |
| AAUUUUGCUAAUAAUCGCAAG [Fam3.1 aminoacylation ribozyme variant] | 2.03 | – |
| CUACUUCAAACCAUCGGUCGG [Fam1A.1 aminoacylation ribozyme variant] | 3.15 | – |
| CCAAACUUCGAGCAAUCGGUC [Fam1B.1 aminoacylation ribozyme variant] | 2.34 | – |

| Sequence | self-aminoacylation (biotinyl-Phe-oxazolone) | self-aminoacylation (biotinyl-Trp-oxazolone) |
| --- | --- | --- |
| AAGUGUGCUAAUCGUCGCAAG [Fam3.1 aminoacylation ribozyme variant] | – | 2.44 |
| AAGUGUGCUAAUAGUGGCAAG [Fam3.1 aminoacylation ribozyme variant] | 2.86 | – |
| CAGUUUGCUAAUAGUCGCAAC [Fam3.1 aminoacylation ribozyme variant] | 2.78 | – |
| AAGUUUCAUAAUAGUCGCAAG [Fam3.1 aminoacylation ribozyme variant] | 2.19 | – |
| AAGUUAGCUAAUAGUCGCUAG [Fam3.1 aminoacylation ribozyme variant] | 2.36 | – |
| AUUUACCUAGGUCAUCGGCUG [Fam2.2 aminoacylation ribozyme variant] | 2.16 | – |
| AAGUUUCCUUAUAGUCGCAAG [Fam3.1 aminoacylation ribozyme variant] | 2.75 | – |
| GAGUUUGCUGAUAGUCGCAAG [Fam3.1 aminoacylation ribozyme variant] | 3.71 | – |
| AUUCACCAAGGUCAUCGGGUC [Fam2.2 aminoacylation ribozyme variant] | 3.27 | – |
| AAGUUUGCUAUUAGUCGCAGG [Fam3.1 aminoacylation ribozyme variant] | – | 2.01 |
| ACGUUUGCUAAUAGUCCCAAG [Fam3.1 aminoacylation ribozyme variant] | 2 | – |
| AUUGCCCUGGUCGUCGAGUGA [Fam2.1 aminoacylation ribozyme variant] | 8.62 | – |
| AAGUGUGCUAAUAGUCGCAGG [Fam3.1 aminoacylation ribozyme variant] | – | 2.17 |
| AUGUUUGCGAAUAGUCGCAAG [Fam3.1 aminoacylation ribozyme variant] | 2.47 | – |
| AAGUUUGCUGAUAGUCGCAGG [Fam3.1 aminoacylation ribozyme variant] | 2.42 | – |
| AAGUUUGCUAAUGGUCGCAAU [Fam3.1 aminoacylation ribozyme variant] | 3.15 | – |
| CAGUUUUCUAAUAGUCGCAAG [Fam3.1 aminoacylation ribozyme variant] | 2.91 | – |
| AAGUUAGGUAAUAGUCGCAAG [Fam3.1 aminoacylation ribozyme variant] | – | 2.11 |
| AAGUUUGCUAAUAGCCGCAAU [Fam3.1 aminoacylation ribozyme variant] | 2.22 | – |
| AAGUUUCCUAAUAGUCGCCAG [Fam3.1 aminoacylation ribozyme variant] | 2.94 | – |
| AAGUUAGUUAAUAGUCGCAAG [Fam3.1 aminoacylation ribozyme variant] | 2.7 | – |
| CAGUUUGCUAAUAGUCCCAAG [Fam3.1 aminoacylation ribozyme variant] | 2.32 | – |
| CAGUUUGCUAAUAGUCGCAGG [Fam3.1 aminoacylation ribozyme variant] | 3.45 | – |
| AAGUUUUCUAAUAGUCGCUAG [Fam3.1 aminoacylation ribozyme variant] | 2.43 | – |
| AUUCACCUAGGUCAUCAUGUG [Fam2.2 aminoacylation ribozyme variant] | 2.12 | – |
| CUACUUCAAACAAGCGGUCGG [Fam1A.1 aminoacylation ribozyme variant] | 3.68 | – |
